The values that follow come from patent US6323185, “Anti-viral guanosine-rich oligonucleotides and method of treating HIV” (The United States of America as represented by the …).

The target in one series is CD4 (UniProt P01730 P01730:26-396). The series is described as follows: competition; ID50, oligo with immobilized CD4. The settings on record: tags: immobilized, gp120 capture ELISA kit.
Series [1] deals with T1, gp120 envelope glycoprotein (HIV-1, UniProt P04578 P04578:33-511). The series is described as follows: competition; ID50, gp120/CD4 ELISA; PD oligos did not inhibit V3 Mab binding. To be noted: tags: gp120 capture ELISA kit.
Series [2] deals with T2, HIV-1 integrase wild-type (IN1-288) (HIV-1, UniProt P12497 P12497:1148-1435). The series is described as follows: inhibition; first activity column (headed strand transfer); other column 0.100. The settings on record: G4.
Series [3] has as its target T3, HIV-1 reverse transcriptase (HIV-1 (BH10), UniProt P03366;P03366 P03366:600-1159,P03366:600-1039). The series is described as follows: inhibition; gapped duplex DNA template; duplicate 10.0 uM. To be noted: intramolecular G4 (G-octet).
Series [4] concerns the target T3, HIV-1 reverse transcriptase. The series is described as follows: inhibition; poly(rA).p(dT)12-18 template; duplicate 4.2 uM. To be noted: intramolecular G4 (G-octet).
For series [5] the target is unchanged. Put plainly: inhibition; primed ribosomal RNA template; duplicate 0.36 uM. The settings on record: intramolecular G4 (G-octet).
In series [6] the target is T2, HIV-1 integrase wild-type (IN1-288). Put plainly: inhibition; 3'-processing; strand transfer 0.046 uM; Table D-1 79 nM / 49 nM; FIG. 30 55 nM; Mn. To be noted: intramolecular G4 (G-octet).
Series [7] deals with HIV-1 integrase wild-type (IN1-288) (HIV-1, UniProt P12497 P12497:1148-1435). The series is described as follows: UV crosslinking, about 39 kDa complex; not competed by excess T30177 added after preincubation. To be noted: label: 5'-32P.
In series [8] the target is T1, gp120 envelope glycoprotein. Put plainly: competition; ID50, inhibition of gp120 binding to CD4, oligo preincubated with gp120. The settings on record: tags: gp120 capture ELISA kit.

Turning to GTGGTGGGTGGGTGGGTGGTGGGTGGTGGTTGTGGGTGGGTGGTG (ssDNA, phosphodiester) [I100-07], the concentration for half-maximal inhibition (IC50) was determined as 4.25 µM with CD4 and 0.8 µM in [1].

GTGGTGGGTGGGCGGGT (ssDNA, PS at first and last linkages) [T30745] returned an IC50 in series [2] of 0.1 µM.

On to GTGGTGGGTGGGTGGGT (ssDNA, PS at first and last internucleoside linkages, 3'-OH) [T30177 (AR177, Zintevir)], for which the IC50 in [3] came to 8 µM; in series [4], 11 µM; in [5], 1.2 µM; in series [6] it was 0.092 µM.

B1: HIV-1 U5 LTR 21-mer duplex (AE118/AE117) (dsDNA)
DNA 1: GTGTGGAAAATCTCTAGCAGT
DNA 2: ACTGCTAGAGATTTTCCACAC
Turning to B1, in series [7], the binding result is given as “binds”.

Regarding GTTGGGGGTTGTTGGTGGGGTGGTGG (ssDNA, phosphodiester) [I100-00], the IC50 with CD4 amounted to 18 µM; in series [8], 3.5 µM.
